Key:
Assay in all cases: cell-based or functional assay
[1] = biological target: Env of HIV isolate 928-28 (clade AG) (HIV)
[2] = biological target: Env of HIV isolate 247-23 (clade D) (HIV)
[3] = biological target: Env of HIV isolate CH070.1 (clade BC) (HIV)
[4] = biological target: HIV Env of isolate 6785.v5.c14 (HIV)
[5] = biological target: Env of HIV isolate HO86.8 (clade B) (HIV)
[6] = biological target: Env of HIV isolate DU123.06 (clade C) (HIV)
[7] = biological target: HIV Env of isolate ZM109.4 (HIV)
[8] = biological target: Env of HIV isolate CNE40 (clade BC) (HIV)
[9] = biological target: HIV Env of isolate CNE40 (HIV)
[10] = biological target: Env of HIV isolate 7165.18 (clade B) (HIV)
[11] = biological target: Env of HIV isolate CH119.10 (clade BC) (HIV)
[12] = biological target: 208-member cross-clade virus panel
[13] = biological target: HIV Env of isolate 16936-2.21 (HIV)
[14] = biological target: Env of HIV isolate 16845-2.22 (clade C) (HIV)
[15] = biological target: Env of HIV isolate 3589.v1.c4 (clade AC) (HIV)
[16] = biological target: Env of HIV isolate X2088.c9 (clade G) (HIV)
[17] = biological target: Env of HIV isolate MS208.A1 (clade A) (HIV)
[18] = biological target: HIV Env of isolate CNE31 (HIV)
[19] = biological target: Env of HIV isolate HT593.1 (clade B) (HIV)
[20] = biological target: Env of HIV isolate TRO.11 (clade B) (HIV)
[21] = biological target: Env of HIV isolate DU156.12 (clade C) (HIV)
[22] = biological target: Env of HIV isolate CNE7 (clade BC) (HIV)
[23] = biological target: Env of HIV isolate TRJO.58 (clade B) (HIV)
Envelope of SVA.MLV = biological target: Envelope of SVA.MLV
[24] = biological target: Env of HIV isolate Bal.01 (clade B) (HIV)
[25] = biological target: HIV Env of isolate CH119.10 (HIV)
[26] = biological target: HIV Env of isolate CH181.12 (HIV)
[27] = biological target: Env of HIV isolate BR07.DG (clade B) (HIV)
[28] = biological target: HIV Env of isolate DU151.02 (HIV)
[29] = biological target: Env of HIV isolate 5768.04 (clade B) (HIV)
[30] = biological target: Env of HIV isolate BI369.9A (clade A) (HIV)
[31] = biological target: Env of HIV isolate 0330.v4.c3 (clade A) (HIV)
[32] = biological target: HIV Env of isolate CE703010217.B6 (HIV)
[33] = biological target: Env of HIV isolate ZM214.15 (clade C) (HIV)
[34] = biological target: HIV Env of isolate P1981.C5.3 (HIV)
[35] = biological target: Env of HIV isolate T250-4 (clade AG) (HIV)
[36] = biological target: Env of HIV isolate BB201.B42 (clade A) (HIV)
[37] = biological target: HIV Env of isolate TZBD.02 (HIV)
[38] = biological target: Env of HIV isolate X1254.c3 (clade G) (HIV)
[39] = biological target: Env of HIV isolate CNE21 (clade BC) (HIV)
[40] = biological target: HIV Env of isolate A07412M1.vrc12 (HIV)
[41] = biological target: Env of HIV isolate CNE10 (clade B) (HIV)
[42] = biological target: HIV Env of isolate 247-23 (HIV)
[43] = biological target: Env of HIV isolate KER2008.12 (clade A) (HIV)

B1: ePGT121.18.17 (ePGT121.18.H17 VH and ePGT121.17.L1 VL) (antibody, V domains shown)
VH: QMQLQESGPGLVKPGETLSLTCSVSGASISSSYWSWLRETPGKGLEWIGYTHHSGDTNYAPSLKSRVTIGLDPSKNQVSLSLTSVTAADTAVYYCARTLHGRRIYGVVAFNEYYTYFYWPTWGKGTQVTVSS
VL: SDISVAPGETVRITCGGESIGSRAVQWYQHRPGQAPRLIIYNNQDRPPGIPERFSGSPDIDFGTTATLTISNVEAGDEATYYCHIWDSRRPTNWELGPGTTLTVL
[1]
  IC50, pseudovirus neutralization: 0.462 µg/mL
[2]
  IC50, pseudovirus neutralization: > 50 µg/mL
[3]
  IC50, pseudovirus neutralization: 0.003 µg/mL
[4]
  IC80, pseudovirus neutralization: 0.015 µg/mL
[5]
  IC50, pseudovirus neutralization: > 50 µg/mL
[6]
  IC50, pseudovirus neutralization: 0.004 µg/mL
[7]
  IC80, pseudovirus neutralization: > 50 µg/mL
[8]
  IC50, pseudovirus neutralization: 0.036 µg/mL
[9]
  IC80, pseudovirus neutralization: 0.13 µg/mL
[10]
  IC50, pseudovirus neutralization: 0.006 µg/mL
[11]
  IC50, pseudovirus neutralization: 0.013 µg/mL
[12]
  % vs Neutralized, IC50 < 0.01 ug/ml: 40%
  % vs Neutralized, IC50 < 0.1 ug/ml: 61%
  % vs Neutralized, IC50 < 1.0 ug/ml: 69%
  % vs Neutralized, IC50 < 10 ug/ml: 74%
  % vs Neutralized, IC50 < 50 ug/ml: 76%
  % vs Neutralized, IC80 < 0.01 ug/ml: 14.4%
  % vs Neutralized, IC80 < 0.1 ug/ml: 53.4%
  % vs Neutralized, IC80 < 1.0 ug/ml: 63.5%
  % vs Neutralized, IC80 < 10 ug/ml: 67.8%
  % vs Neutralized, IC80 < 50 ug/ml: 70.7%
  Geometric Mean (IC50): 0.0202 µg/mL
  Geometric Mean IC80: 0.0443 µg/mL
  Median IC50: 0.009 µg/mL
  Median IC80: 0.02 µg/mL
  Total VS Neutralized, IC50 < 0.01 ug/ml (viruses of 208): 83
  Total VS Neutralized, IC50 < 0.1 ug/ml (viruses of 208): 126
  Total VS Neutralized, IC50 < 1.0 ug/ml (viruses of 208): 143
  Total VS Neutralized, IC50 < 10 ug/ml (viruses of 208): 154
  Total VS Neutralized, IC50 < 50 ug/ml (viruses of 208): 158
  Total VS Neutralized, IC80 < 0.01 ug/ml (viruses of 208): 30
  Total VS Neutralized, IC80 < 0.1 ug/ml (viruses of 208): 111
  Total VS Neutralized, IC80 < 1.0 ug/ml (viruses of 208): 132
  Total VS Neutralized, IC80 < 10 ug/ml (viruses of 208): 141
  Total VS Neutralized, IC80 < 50 ug/ml (viruses of 208): 147
[13]
  IC80, pseudovirus neutralization: 0.011 µg/mL
[14]
  IC50, pseudovirus neutralization: 0.232 µg/mL
[15]
  IC50, pseudovirus neutralization: 2.73 µg/mL
[16]
  IC50, pseudovirus neutralization: 0.006 µg/mL
[17]
  IC50, pseudovirus neutralization: > 50 µg/mL
[18]
  IC80, pseudovirus neutralization: 0.25 µg/mL
[19]
  IC50, pseudovirus neutralization: 0.014 µg/mL
[20]
  IC50, pseudovirus neutralization: 0.005 µg/mL
[21]
  IC50, pseudovirus neutralization: 0.003 µg/mL
[22]
  IC50, pseudovirus neutralization: 0.007 µg/mL
[23]
  IC50, pseudovirus neutralization: 0.023 µg/mL
Envelope of SVA.MLV
  IC80, pseudovirus neutralization: > 50 µg/mL
[24]
  IC50, pseudovirus neutralization: 0.003 µg/mL
[25]
  IC80, pseudovirus neutralization: 0.028 µg/mL
[26]
  IC80, pseudovirus neutralization: 0.011 µg/mL
[27]
  IC50, pseudovirus neutralization: 0.008 µg/mL
[28]
  IC80, pseudovirus neutralization: 0.005 µg/mL
[29]
  IC50, pseudovirus neutralization: 0.029 µg/mL
[30]
  IC50, pseudovirus neutralization: 0.004 µg/mL
[31]
  IC50, pseudovirus neutralization: 0.012 µg/mL
[32]
  IC80, pseudovirus neutralization: 0.016 µg/mL
[33]
  IC50, pseudovirus neutralization: 0.08 µg/mL
[34]
  IC80, pseudovirus neutralization: 0.005 µg/mL
[35]
  IC50, pseudovirus neutralization: 0.002 µg/mL
[36]
  IC50, pseudovirus neutralization: 0.003 µg/mL
[37]
  IC80, pseudovirus neutralization: 0.013 µg/mL
[38]
  IC50, pseudovirus neutralization: 0.006 µg/mL
[39]
  IC50, pseudovirus neutralization: 0.002 µg/mL
[40]
  IC80, pseudovirus neutralization: 0.011 µg/mL
[41]
  IC50, pseudovirus neutralization: 0.004 µg/mL
[42]
  IC80, pseudovirus neutralization: > 50 µg/mL
[43]
  IC50, pseudovirus neutralization: 0.01 µg/mL

B2: ePGT121.15 (ePGT121.15.H6 VH and ePGT121.15.L1 VL) (antibody, V domains shown)
VH: QMQLQESGPGLVKPGETLSLTCSVSGASISSSYWSWLRETPGKGLEWIGYTHHSGDTNYAPSLKSRVHLGLHPSKNQVSLSLTSVTAADTAVYYCARTLHGRRIYGVVAFNEFFTYFYWEVWGKGTQVTVSS
VL: SDISVAPGETVRISCGGESIGSRAVQWYQHRAGQAPKLIIYNNQDRPPGIPERFSGSPDIDFGTTATLTITNVEAGDEATYYCHIWDSRRPTNWVFGGGTTLTVL
[1]
  IC50, pseudovirus neutralization: 0.161 µg/mL
[2]
  IC50, pseudovirus neutralization: > 50 µg/mL
[3]
  IC50, pseudovirus neutralization: 0.001 µg/mL
[4]
  IC80, pseudovirus neutralization: 0.01 µg/mL
[5]
  IC50, pseudovirus neutralization: > 50 µg/mL
[6]
  IC50, pseudovirus neutralization: 0.003 µg/mL
[7]
  IC80, pseudovirus neutralization: > 50 µg/mL
[8]
  IC50, pseudovirus neutralization: 0.028 µg/mL
[9]
  IC80, pseudovirus neutralization: 0.082 µg/mL
[10]
  IC50, pseudovirus neutralization: 0.003 µg/mL
[11]
  IC50, pseudovirus neutralization: 0.005 µg/mL
[12]
  % vs Neutralized, IC50 < 0.01 ug/ml: 49%
  % vs Neutralized, IC50 < 0.1 ug/ml: 63%
  % vs Neutralized, IC50 < 1.0 ug/ml: 70%
  % vs Neutralized, IC50 < 10 ug/ml: 75%
  % vs Neutralized, IC50 < 50 ug/ml: 77%
  % vs Neutralized, IC80 < 0.01 ug/ml: 26.9%
  % vs Neutralized, IC80 < 0.1 ug/ml: 56.2%
  % vs Neutralized, IC80 < 1.0 ug/ml: 63.5%
  % vs Neutralized, IC80 < 10 ug/ml: 70.2%
  % vs Neutralized, IC80 < 50 ug/ml: 72.6%
  Geometric Mean (IC50): 0.0148 µg/mL
  Geometric Mean IC80: 0.0351 µg/mL
  Median IC50: 0.0055 µg/mL
  Median IC80: 0.015 µg/mL
  Total VS Neutralized, IC50 < 0.01 ug/ml (viruses of 208): 101
  Total VS Neutralized, IC50 < 0.1 ug/ml (viruses of 208): 130
  Total VS Neutralized, IC50 < 1.0 ug/ml (viruses of 208): 145
  Total VS Neutralized, IC50 < 10 ug/ml (viruses of 208): 156
  Total VS Neutralized, IC50 < 50 ug/ml (viruses of 208): 160
  Total VS Neutralized, IC80 < 0.01 ug/ml (viruses of 208): 56
  Total VS Neutralized, IC80 < 0.1 ug/ml (viruses of 208): 117
  Total VS Neutralized, IC80 < 1.0 ug/ml (viruses of 208): 132
  Total VS Neutralized, IC80 < 10 ug/ml (viruses of 208): 146
  Total VS Neutralized, IC80 < 50 ug/ml (viruses of 208): 151
[13]
  IC80, pseudovirus neutralization: 0.007 µg/mL
[14]
  IC50, pseudovirus neutralization: 0.077 µg/mL
[15]
  IC50, pseudovirus neutralization: 0.229 µg/mL
[16]
  IC50, pseudovirus neutralization: 0.003 µg/mL
[17]
  IC50, pseudovirus neutralization: > 50 µg/mL
[18]
  IC80, pseudovirus neutralization: 0.147 µg/mL
[19]
  IC50, pseudovirus neutralization: 0.008 µg/mL
[20]
  IC50, pseudovirus neutralization: 0.003 µg/mL
[21]
  IC50, pseudovirus neutralization: 0.002 µg/mL
[22]
  IC50, pseudovirus neutralization: 0.005 µg/mL
[23]
  IC50, pseudovirus neutralization: 0.007 µg/mL
Envelope of SVA.MLV
  IC80, pseudovirus neutralization: > 50 µg/mL
[24]
  IC50, pseudovirus neutralization: 0.002 µg/mL
[25]
  IC80, pseudovirus neutralization: 0.016 µg/mL
[26]
  IC80, pseudovirus neutralization: 0.008 µg/mL
[27]
  IC50, pseudovirus neutralization: 0.009 µg/mL
[28]
  IC80, pseudovirus neutralization: 0.004 µg/mL
[29]
  IC50, pseudovirus neutralization: 0.028 µg/mL
[30]
  IC50, pseudovirus neutralization: 0.002 µg/mL
[31]
  IC50, pseudovirus neutralization: 0.006 µg/mL
[32]
  IC80, pseudovirus neutralization: 0.012 µg/mL
[33]
  IC50, pseudovirus neutralization: 0.028 µg/mL
[34]
  IC80, pseudovirus neutralization: 0.005 µg/mL
[35]
  IC50, pseudovirus neutralization: 0.002 µg/mL
[36]
  IC50, pseudovirus neutralization: 0.003 µg/mL
[37]
  IC80, pseudovirus neutralization: 0.007 µg/mL
[38]
  IC50, pseudovirus neutralization: 0.004 µg/mL
[39]
  IC50, pseudovirus neutralization: 0.002 µg/mL
[40]
  IC80, pseudovirus neutralization: 0.012 µg/mL
[41]
  IC50, pseudovirus neutralization: 0.004 µg/mL
[42]
  IC80, pseudovirus neutralization: > 50 µg/mL
[43]
  IC50, pseudovirus neutralization: 0.01 µg/mL
